Results published in patent US20180155451A1 (published 2018).

B1: GpH7-A5/GpH7-B3 variant K326_03V/GpL16-k0 (antibody, human IgG1, kappa)
heavy 1: not shown
heavy 2: not shown
light: DIVMTQSPLSLPVTPGEPASISCQASESLVHSNRNTYLHWYLQKPGQSPQLLIYKVSNRFSGVPDRFSGSGSGTDFTLKISRVEAEDVGVYYCSQNTHVPPTFGQGTKVEIERTVAAPSVFIFPPSDEQLKSGTASVVCLLNNFYPREAKVQWKVDNALQSGNSQESVTEQDSKDSTYSLSSTLTLSKADYEKHKVYACEVTHQGLSSPVTKSFNRGEC
notes: heterodimerized IgG1, mutation in one H chain only; also called He Ab
B2: GpH7-A5/GpH7-B3 variant K334_14T/GpL16-k0 (antibody, human IgG1, kappa)
heavy 1: not shown
heavy 2: not shown
light: B1 light
notes: as for B1
B3: GpH7-A5/GpH7-B3 variant S267_02A/GpL16-k0 (antibody, human IgG1, kappa)
heavy 1: not shown
heavy 2: not shown
light: B1 light
notes: as for B1
B4: GpH7-A5/GpH7-B3 variant K326_10E/GpL16-k0 (antibody, human IgG1, kappa)
heavy 1: not shown
heavy 2: not shown
light: B1 light
notes: as for B1
B5: GpH7-A5/GpH7-B3 variant K334_15Y/GpL16-k0 (antibody, human IgG1, kappa)
heavy 1: not shown
heavy 2: not shown
light: B1 light
notes: as for B1
B6: GpH7-A5/GpH7-B3 variant S298_14T/GpL16-k0 (antibody, human IgG1, kappa)
heavy 1: not shown
heavy 2: not shown
light: B1 light
notes: as for B1
B7: GpH7-A5/GpH7-B3 variant I332_10E/GpL16-k0 (antibody, human IgG1, kappa)
heavy 1: not shown
heavy 2: not shown
light: B1 light
notes: as for B1
B8: GpH7-A5/GpH7-B3 variant I336_14T/GpL16-k0 (antibody, human IgG1, kappa)
heavy 1: not shown
heavy 2: not shown
light: B1 light
notes: as for B1
B9: GpH7-A5/GpH7-B3 variant E333_16H/GpL16-k0 (antibody, human IgG1, kappa)
heavy 1: not shown
heavy 2: not shown
light: B1 light
notes: as for B1
B10: GpH7-A5/GpH7-B3 variant H268_10E/GpL16-k0 (antibody, human IgG1, kappa)
heavy 1: not shown
heavy 2: not shown
light: B1 light
notes: as for B1
B11: GpH7-A5/GpH7-B3 variant I336_18N/GpL16-k0 (antibody, human IgG1, kappa)
heavy 1: not shown
heavy 2: not shown
light: B1 light
notes: as for B1
B12: GpH7-A5/GpH7-B3 variant K334_07I/GpL16-k0 (antibody, human IgG1, kappa)
heavy 1: not shown
heavy 2: not shown
light: B1 light
notes: as for B1
B13: GpH7-A5/GpH7-B3 variant H268_09D/GpL16-k0 (antibody, human IgG1, kappa)
heavy 1: not shown
heavy 2: not shown
light: B1 light
notes: as for B1
B14: GpH7-A5/GpH7-B3 variant K326_09D/GpL16-k0 (antibody, human IgG1, kappa)
heavy 1: not shown
heavy 2: not shown
light: B1 light
notes: as for B1
B15: GpH7-A5/GpH7-B3 variant K334_03V/GpL16-k0 (antibody, human IgG1, kappa)
heavy 1: not shown
heavy 2: not shown
light: B1 light
notes: as for B1
B16: GpH7-A5/GpH7-B3 variant I336_03V/GpL16-k0 (antibody, human IgG1, kappa)
heavy 1: not shown
heavy 2: not shown
light: B1 light
notes: as for B1
B17: GpH7-A5/GpH7-B3 variant S239_09D/GpL16-k0 (antibody, human IgG1, kappa)
heavy 1: not shown
heavy 2: not shown
light: B1 light
notes: as for B1
B18: GpH7-A5/GpH7-B3 variant A330_04F/GpL16-k0 (antibody, human IgG1, kappa)
heavy 1: not shown
heavy 2: not shown
light: B1 light
notes: as for B1
B19: GpH7-A5/GpH7-B3 variant H268_13S/GpL16-k0 (antibody, human IgG1, kappa)
heavy 1: not shown
heavy 2: not shown
light: B1 light
notes: as for B1
B20: GpH7-A5/GpH7-B3 variant K326_04F/GpL16-k0 (antibody, human IgG1, kappa)
heavy 1: not shown
heavy 2: not shown
light: B1 light
notes: as for B1
B21: GpH7-A5/GpH7-B3 variant Q295_10E/GpL16-k0 (antibody, human IgG1, kappa)
heavy 1: not shown
heavy 2: not shown
light: B1 light
notes: as for B1
B22: GpH7-A5/GpH7-B3 variant I332_02A/GpL16-k0 (antibody, human IgG1, kappa)
heavy 1: not shown
heavy 2: not shown
light: B1 light
notes: as for B1
B23: GpH7-A5/GpH7-B3 variant S337_09D/GpL16-k0 (antibody, human IgG1, kappa)
heavy 1: not shown
heavy 2: not shown
light: B1 light
notes: as for B1
B24: GpH7-A5/GpH7-B3 variant K334_18N/GpL16-k0 (antibody, human IgG1, kappa)
heavy 1: not shown
heavy 2: not shown
light: B1 light
notes: as for B1
B25: GpH7-A5/GpH7-B3 variant K326_15Y/GpL16-k0 (antibody, human IgG1, kappa)
heavy 1: not shown
heavy 2: not shown
light: B1 light
notes: as for B1
B26: GpH7-A5/GpH7-B3 variant I332_01G/GpL16-k0 (antibody, human IgG1, kappa)
heavy 1: not shown
heavy 2: not shown
light: B1 light
notes: as for B1
B27: GpH7-B3 variant S337_10E/GpL16-k0 (antibody, human IgG1, kappa)
heavy: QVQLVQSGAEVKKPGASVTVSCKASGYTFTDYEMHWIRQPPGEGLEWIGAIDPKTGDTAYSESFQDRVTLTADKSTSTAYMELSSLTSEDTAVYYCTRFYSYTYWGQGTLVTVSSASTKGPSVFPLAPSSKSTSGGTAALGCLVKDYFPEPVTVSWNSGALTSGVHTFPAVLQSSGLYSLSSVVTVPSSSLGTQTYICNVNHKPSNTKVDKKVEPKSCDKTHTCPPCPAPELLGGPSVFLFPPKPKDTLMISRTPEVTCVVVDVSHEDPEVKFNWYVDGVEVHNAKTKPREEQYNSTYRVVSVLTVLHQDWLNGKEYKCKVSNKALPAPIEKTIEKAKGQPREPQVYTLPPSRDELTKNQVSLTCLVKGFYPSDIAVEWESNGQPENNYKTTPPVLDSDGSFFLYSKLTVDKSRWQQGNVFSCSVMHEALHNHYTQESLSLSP
light: B1 light
notes: homodimerized IgG1, mutation in both H chains; also called Ho Ab
B28: GpH7-B3 variant T335_07I/GpL16-k0 (antibody, human IgG1, kappa)
heavy: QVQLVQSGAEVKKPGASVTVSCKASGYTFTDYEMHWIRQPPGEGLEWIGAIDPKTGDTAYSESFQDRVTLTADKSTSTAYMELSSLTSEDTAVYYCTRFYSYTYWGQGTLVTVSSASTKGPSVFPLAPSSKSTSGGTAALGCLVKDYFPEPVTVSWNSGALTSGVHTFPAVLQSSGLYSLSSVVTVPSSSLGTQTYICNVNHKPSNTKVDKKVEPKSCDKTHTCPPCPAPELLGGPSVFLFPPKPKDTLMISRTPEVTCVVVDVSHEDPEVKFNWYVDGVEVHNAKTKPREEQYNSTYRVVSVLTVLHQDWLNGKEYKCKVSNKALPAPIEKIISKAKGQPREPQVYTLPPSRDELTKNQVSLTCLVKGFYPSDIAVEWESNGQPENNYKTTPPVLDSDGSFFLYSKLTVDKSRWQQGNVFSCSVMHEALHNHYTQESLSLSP
light: B1 light
notes: as for B27
B29: GpH7-B3 variant T335_10E/GpL16-k0 (antibody, human IgG1, kappa)
heavy: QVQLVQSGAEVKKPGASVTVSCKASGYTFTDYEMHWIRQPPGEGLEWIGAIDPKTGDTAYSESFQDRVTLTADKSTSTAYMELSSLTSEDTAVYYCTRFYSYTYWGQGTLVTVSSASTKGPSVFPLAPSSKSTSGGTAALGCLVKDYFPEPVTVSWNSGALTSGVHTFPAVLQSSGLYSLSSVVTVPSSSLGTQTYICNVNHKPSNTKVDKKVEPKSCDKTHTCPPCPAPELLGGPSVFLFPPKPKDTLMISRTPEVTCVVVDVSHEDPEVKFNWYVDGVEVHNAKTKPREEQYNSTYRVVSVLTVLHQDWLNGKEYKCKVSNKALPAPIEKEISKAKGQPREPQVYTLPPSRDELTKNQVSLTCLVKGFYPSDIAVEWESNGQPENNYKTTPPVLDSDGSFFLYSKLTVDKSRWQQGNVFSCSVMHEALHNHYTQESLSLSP
light: B1 light
notes: as for B27
B30: GpH7-B3 variant S337_18N/GpL16-k0 (antibody, human IgG1, kappa)
heavy: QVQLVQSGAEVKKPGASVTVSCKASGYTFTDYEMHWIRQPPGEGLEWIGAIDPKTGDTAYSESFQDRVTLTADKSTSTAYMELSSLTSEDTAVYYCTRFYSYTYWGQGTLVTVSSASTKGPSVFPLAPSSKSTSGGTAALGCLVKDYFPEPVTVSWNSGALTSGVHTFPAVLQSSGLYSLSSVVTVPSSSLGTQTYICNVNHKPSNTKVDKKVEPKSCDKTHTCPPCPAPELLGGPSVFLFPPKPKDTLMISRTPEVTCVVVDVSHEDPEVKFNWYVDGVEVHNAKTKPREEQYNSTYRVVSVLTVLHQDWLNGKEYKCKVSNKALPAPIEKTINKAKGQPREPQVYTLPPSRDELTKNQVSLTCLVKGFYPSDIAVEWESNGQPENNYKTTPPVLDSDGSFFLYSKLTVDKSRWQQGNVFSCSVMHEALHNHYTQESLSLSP
light: B1 light
notes: as for B27

These binders were tested against T1, FcγRIIIa extracellular domain with C-terminal His tag (human, UniProt P08637 17-208) (assay: SPR, relative to GpH7-A5/GpH7-B3/GpL16-k0).
T1 construct: extracellular domain; also called FcgRIIIa; 3a
T1 sequence (P08637 17-208): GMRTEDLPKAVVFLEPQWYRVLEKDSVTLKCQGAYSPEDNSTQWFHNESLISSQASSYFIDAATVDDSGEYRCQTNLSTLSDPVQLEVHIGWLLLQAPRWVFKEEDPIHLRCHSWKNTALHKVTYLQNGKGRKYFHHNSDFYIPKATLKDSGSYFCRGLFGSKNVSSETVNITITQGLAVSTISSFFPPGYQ

Row | Binder | He/Con_3a
1 | B1 | 122 % of control (=100)
2 | B2 | 141 % of control (=100)
3 | B3 | 150 % of control (=100)
4 | B4 | 124 % of control (=100)
5 | B5 | 141 % of control (=100)
6 | B6 | 113 % of control (=100)
7 | B7 | 233 % of control (=100)
8 | B8 | 108 % of control (=100)
9 | B9 | 103 % of control (=100)
10 | B10 | 186 % of control (=100)
11 | B11 | 104 % of control (=100)
12 | B12 | 151 % of control (=100)
13 | B13 | 197 % of control (=100)
14 | B14 | 134 % of control (=100)
15 | B15 | 150 % of control (=100)
16 | B16 | 112 % of control (=100)
17 | B17 | 166 % of control (=100)
18 | B18 | 147 % of control (=100)
19 | B19 | 122 % of control (=100)
20 | B20 | 103 % of control (=100)
21 | B21 | 100 % of control (=100)
22 | B22 | 112 % of control (=100)
23 | B23 | 110 % of control (=100)
24 | B24 | 136 % of control (=100)
25 | B25 | 112 % of control (=100)
26 | B26 | 111 % of control (=100)

What follows are binders tested against T1, FcγRIIIa extracellular domain with … (assay: SPR, relative to GpH7-B3/GpL16-k0).

Row | Binder | Ho/Con_3a
27 | B27 | 100 % of control (=100)
28 | B28 | 107 % of control (=100)
29 | B29 | 102 % of control (=100)
30 | B30 | 102 % of control (=100)
